Test results as given in PMC6910952 (Nature Communications, 2019).
Positions count from the first letter of the chain named. Names and notes keep the numbering of the source. Values belong to the binder of their own block, whether it stands above or below them. No end group written: not given here.

What was measured:
M1-Ub4 = target: T1, M1-Ub4 (UniProt P0CG48 1-76; P0CG48 1-76; P0CG48 1-76; P0CG48 1-76); experiment: SPR; Biacore T200, 25 °C; wild-type or mutant His6-yNpl4^113–580, yUfd1–His6-yNpl4^113–580 or His6-hNpl4 immobilized on a CM5 chip by amine coupling; Ub2 or Ub4 in two-fold dilution series injected 60 s at 10 μL per min in 10 mM HEPES-NaOH pH 7.5, 150 mM NaCl, 0.05% Tween-20, 0.5 g/L BSA; equilibrium Kd; details: both partners purified
T1 construct: ubiquitin (Ub), first unit; ubiquitin (Ub), second unit; ubiquitin (Ub), third unit; ubiquitin (Ub), fourth unit

His6-yNpl4^113–580 = target: T2, His6-yNpl4^113–580 (Saccharomyces cerevisiae, UniProt P33755 113-580); experiment: fluorescence polarisation; fluorescence anisotropy; 1 nM FlAsH-labeled His6-SUMO-yUfd1 peptide, His6-yNpl4^113–580 in two-fold dilution series; 25 °C; 50 mM Tris-HCl pH 8.0, 100 mM NaCl, 5 mM β-mercaptoethanol, 0.1 g/L BSA; details: both partners purified
T2 construct: codon-optimized synthetic cDNA; also called WT; WT #1; source: E. coli Rosetta (DE3), purified (Ni-NTA, Resource Q); also in lysate, mixed with cells expressing GST-yUfd1 for co-purification; not shown: His6, N-terminal, kept
T2 sequence (looked up): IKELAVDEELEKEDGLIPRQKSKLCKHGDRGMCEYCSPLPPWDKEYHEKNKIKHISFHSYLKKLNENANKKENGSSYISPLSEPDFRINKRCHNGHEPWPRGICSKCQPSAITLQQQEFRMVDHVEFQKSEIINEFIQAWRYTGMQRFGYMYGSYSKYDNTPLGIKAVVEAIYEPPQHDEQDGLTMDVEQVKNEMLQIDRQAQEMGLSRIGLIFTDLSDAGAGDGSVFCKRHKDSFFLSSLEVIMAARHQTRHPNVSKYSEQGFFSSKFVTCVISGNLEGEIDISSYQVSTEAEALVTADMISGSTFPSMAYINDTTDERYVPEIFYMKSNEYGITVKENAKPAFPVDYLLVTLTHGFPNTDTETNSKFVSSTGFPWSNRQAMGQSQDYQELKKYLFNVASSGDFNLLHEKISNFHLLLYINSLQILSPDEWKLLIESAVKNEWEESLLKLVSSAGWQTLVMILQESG

T1 sequence (P0CG48 1-304, one chain of several): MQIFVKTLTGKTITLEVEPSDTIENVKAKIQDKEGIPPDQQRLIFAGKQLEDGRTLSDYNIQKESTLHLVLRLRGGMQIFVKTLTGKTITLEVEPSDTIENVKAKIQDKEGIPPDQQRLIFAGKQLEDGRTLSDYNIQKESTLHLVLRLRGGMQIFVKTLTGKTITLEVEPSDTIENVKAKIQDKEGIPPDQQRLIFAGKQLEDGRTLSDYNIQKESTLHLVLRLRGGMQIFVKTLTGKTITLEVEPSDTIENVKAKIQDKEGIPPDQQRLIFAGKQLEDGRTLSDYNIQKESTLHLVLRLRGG

B3: His6-yNpl4^113–580 A494F (domain or fragment, Saccharomyces cerevisiae, UniProt P33755 113-580, looked up)
chain: T2 sequence (looked up) with A382F
notes: source: E. coli Rosetta (DE3), purified (Ni-NTA, Resource Q); not shown: His6, N-terminal, kept
Kd (M1-Ub4): 84 µM

B7: His6-yNpl4^113–580 M574A (domain or fragment, Saccharomyces cerevisiae, UniProt P33755 113-580, looked up)
chain: T2 sequence (looked up) with M462A
notes: as for B3
Kd (M1-Ub4): 291 µM

B8: His6-yNpl4^113–580 I575A (domain or fragment, Saccharomyces cerevisiae, UniProt P33755 113-580, looked up)
chain: T2 sequence (looked up) with I463A
notes: as for B3
Kd (M1-Ub4): 837 µM

B9: FlAsH-labeled His6-SUMO-yUfd1^288–305-GWCCPGCC E296A (peptide, UniProt P53044 288-305, looked up)
chain: {His6-SUMO}-EPAKLDLPAGQLFFGFPMGWCCPGCC
modifications: cysteine pairing not given here; also: FlAsH label bound to CCPGCC motif
notes: Ufd1 of Saccharomyces cerevisiae (yUfd1), residues 288-305 (NBM); also called yUfd1 E296A; source: E. coli Rosetta (DE3) (pCold-SUMO), purified (Ni-NTA, Resource Q), labeled with FlAsH-EDT2; not shown: His6, N-terminal, kept; SUMO, N-terminal, kept
Kd (His6-yNpl4^113–580): 0.437 µM

B10: FlAsH-labeled His6-SUMO-yUfd1^288–305-GWCCPGCC G297R (peptide, UniProt P53044 288-305, looked up)
chain: {His6-SUMO}-EPAKLDLPERQLFFGFPMGWCCPGCC
modifications: cysteine pairing not given here; also: FlAsH label bound to CCPGCC motif
notes: Ufd1 of Saccharomyces cerevisiae (yUfd1), residues 288-305 (NBM); also called yUfd1 G297R; source: E. coli Rosetta (DE3) (pCold-SUMO), purified (Ni-NTA, Resource Q), labeled with FlAsH-EDT2; not shown: His6, N-terminal, kept; SUMO, N-terminal, kept
Kd (His6-yNpl4^113–580): 20.9 µM

B11: FlAsH-labeled His6-SUMO-yUfd1^288–305-GWCCPGCC F303A (peptide, UniProt P53044 288-305, looked up)
chain: {His6-SUMO}-EPAKLDLPEGQLFFGAPMGWCCPGCC
modifications: cysteine pairing not given here; also: FlAsH label bound to CCPGCC motif
notes: Ufd1 of Saccharomyces cerevisiae (yUfd1), residues 288-305 (NBM); also called yUfd1 F303A; source: E. coli Rosetta (DE3) (pCold-SUMO), purified (Ni-NTA, Resource Q), labeled with FlAsH-EDT2; not shown: His6, N-terminal, kept; SUMO, N-terminal, kept
Kd (His6-yNpl4^113–580): 1.77 µM

B12: FlAsH-labeled His6-SUMO-yUfd1^288–305-GWCCPGCC M305A (peptide, UniProt P53044 288-305, looked up)
chain: {His6-SUMO}-EPAKLDLPEGQLFFGFPAGWCCPGCC
modifications: cysteine pairing not given here; also: FlAsH label bound to CCPGCC motif
notes: Ufd1 of Saccharomyces cerevisiae (yUfd1), residues 288-305 (NBM); also called yUfd1 M305A; source: E. coli Rosetta (DE3) (pCold-SUMO), purified (Ni-NTA, Resource Q), labeled with FlAsH-EDT2; not shown: His6, N-terminal, kept; SUMO, N-terminal, kept
Kd (His6-yNpl4^113–580): 0.261 µM

Further lines, results first:

Kd (M1-Ub4): 923 µM
B1: His6-yNpl4^113–580 T571A (domain or fragment, Saccharomyces cerevisiae, UniProt P33755 113-580, looked up)
chain: T2 sequence (looked up) with T459A
notes: as for B3

Kd (M1-Ub4): 151 µM
B2: yUfd1–His6-yNpl4^113–580 complex (complex, Saccharomyces cerevisiae)
chain 1: MFSGFSSFGGGNGFVNMPQTFEEFFRCYPIAMMNDRIRKDDANFGGKIFLPPSALSKLSMLNIRYPMLFKLTANETGRVTHGGVLEFIAEEGRVYLPQWMMETLGIQPGSLLQISSTDVPLGQFVKLEPQSVDFLDISDPKAVLENVLRNFSTLTVDDVIEISYNGKTFKIKILEVKPESSSKSICVIETDLVTDFAPPVGYVEPDYKALKAQQDKEKKNSFGKGQVLDPSVLGQGSMSTRIDYAGIANSSRNKLSKFVGQGQNISGKAPKAEPKQDIKDMKITFDGEPAKLDLPEGQLFFGFPMVLPKEDEESAAGSKSSEQNFQGQGISLRKSNKRKTKSDHDSSKSKAPKSPEVIEID
chain 2: T2 sequence (looked up)
notes: Ufd1 of Saccharomyces cerevisiae (yUfd1), full-length gene in pGEX-6P1; also called yUfd1–yNpl4; not shown: GST, N-terminal, cleaved; His6, N-terminal, kept

Kd (M1-Ub4): 101 µM
B4: His6-yNpl4^113–580 S498L (domain or fragment, Saccharomyces cerevisiae, UniProt P33755 113-580, looked up)
chain: T2 sequence (looked up) with S386L
notes: as for B3

Kd (M1-Ub4): 136 µM
B5: His6-yNpl4^113–580 S498R (domain or fragment, Saccharomyces cerevisiae, UniProt P33755 113-580, looked up)
chain: T2 sequence (looked up) with S386R
notes: as for B3

Kd (M1-Ub4): 634 µM
B6: His6-yNpl4^113–580 M574Q (domain or fragment, Saccharomyces cerevisiae, UniProt P33755 113-580, looked up)
chain: T2 sequence (looked up) with M462Q
notes: as for B3
